Experimental data reported in PMC3060076 (PLoS Genetics, 2011).

T1: Myc-Smo (6Myc-tagged Smoothened) (Drosophila, UniProt P91682 32-1036)
T1 sequence (looked up): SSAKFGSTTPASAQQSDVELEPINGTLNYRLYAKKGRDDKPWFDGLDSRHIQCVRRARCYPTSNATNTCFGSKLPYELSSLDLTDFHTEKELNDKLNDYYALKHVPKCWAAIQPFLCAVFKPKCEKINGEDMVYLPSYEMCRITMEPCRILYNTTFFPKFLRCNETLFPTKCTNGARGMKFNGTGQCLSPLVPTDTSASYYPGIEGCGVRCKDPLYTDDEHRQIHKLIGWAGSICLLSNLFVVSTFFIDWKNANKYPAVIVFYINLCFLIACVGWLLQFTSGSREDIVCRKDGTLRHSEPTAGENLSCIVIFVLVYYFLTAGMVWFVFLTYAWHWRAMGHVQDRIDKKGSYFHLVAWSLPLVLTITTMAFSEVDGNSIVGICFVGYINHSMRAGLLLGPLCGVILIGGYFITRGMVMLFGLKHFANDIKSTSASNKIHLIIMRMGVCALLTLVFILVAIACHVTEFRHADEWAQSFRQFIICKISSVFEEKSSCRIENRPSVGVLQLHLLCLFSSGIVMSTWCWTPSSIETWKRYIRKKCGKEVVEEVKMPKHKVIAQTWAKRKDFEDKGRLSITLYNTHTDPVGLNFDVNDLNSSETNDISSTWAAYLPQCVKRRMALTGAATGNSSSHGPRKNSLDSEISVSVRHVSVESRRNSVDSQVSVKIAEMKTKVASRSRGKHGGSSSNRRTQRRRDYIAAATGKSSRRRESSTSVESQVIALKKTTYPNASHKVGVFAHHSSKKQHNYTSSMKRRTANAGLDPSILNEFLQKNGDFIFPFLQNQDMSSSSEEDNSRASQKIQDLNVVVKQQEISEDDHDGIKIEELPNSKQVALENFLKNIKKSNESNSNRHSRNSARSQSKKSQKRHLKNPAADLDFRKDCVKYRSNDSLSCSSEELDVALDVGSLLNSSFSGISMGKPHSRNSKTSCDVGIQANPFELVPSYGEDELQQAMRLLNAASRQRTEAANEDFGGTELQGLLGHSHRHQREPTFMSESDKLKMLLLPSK


Biological target: T1, Myc-Smo (6Myc-tagged Smoothened)
Experiment: co-IP; lysates of stable Myc-Smo S2 cells transiently transfected with pAWF-krz constructs, grown in Hh conditioned medium for 18-24 hrs; immunoprecipitated with anti-Myc agarose at 4°C for 4-16 h with 1 mg/ml BSA (IP buffer: 40 mM Tris-HCl, 200 mM NaCl, 1% Chapso, 0,5% NP40); blotted with anti-Krz serum and anti-Myc
Conditions: partners not purified

fold of co-immunoprecipitate over wild type Krz [times over wild type Krz] | Binder
4 | Krz^Leu-Flag (pAWF-Krz^Leu; Leu440-Ile441-Leu443 to Ala) (natural protein, Drosophila, UniProt Q9V393 1-470, looked up) MNGGGGGSGGANVSNGSSTNVTAAGSTGGGSAGDETGGDASSRRQATRVFKKSSSNGKITVYLGKRDFVDHVTHVDPIDGVVFIDPEYVKDRKVFGQVLAAFRYGREDLDVLGLTFRKDLYLAHEQIYPPMQLDRPMTRLQERLIKKLGPNAHPFYFEVPPYCPASVSLQPAPGDVGKSCGVDYELKAFVGENVEDKPHKRNSVRLTIRKVMYAPSKVGEQPSIEVSKEFMMKPNKIHLEATLDKELYHHGEKISVNVHVANNSNRTVKKIKVCVRQFADICLFSTAQYKSVVAEIESEDGCQVAPGFTLSKVFELCPLLANNKDKWGLALDGQLKHEDTNLASSTLITNPAQRESLGIMVHYKVKVKLLISSPLLNGDLVAELPFTLMHPKPEEEEHPLLGERSPRASLAGGGLPLVSMSDGETESATGGQDVPTTTNAAQADDDEAQDDDIIFEDFARLRLKGAETEA
3 | Krz^V94D-Flag (pAWF-Krz^V94D) (natural protein, Drosophila, UniProt Q9V393 1-470, looked up) MNGGGGGSGGANVSNGSSTNVTAAGSTGGGSAGDETGGDASSRRQATRVFKKSSSNGKITVYLGKRDFVDHVTHVDPIDGVVFIDPEYVKDRKDFGQVLAAFRYGREDLDVLGLTFRKDLYLAHEQIYPPMQLDRPMTRLQERLIKKLGPNAHPFYFEVPPYCPASVSLQPAPGDVGKSCGVDYELKAFVGENVEDKPHKRNSVRLTIRKVMYAPSKVGEQPSIEVSKEFMMKPNKIHLEATLDKELYHHGEKISVNVHVANNSNRTVKKIKVCVRQFADICLFSTAQYKSVVAEIESEDGCQVAPGFTLSKVFELCPLLANNKDKWGLALDGQLKHEDTNLASSTLITNPAQRESLGIMVHYKVKVKLLISSPLLNGDLVAELPFTLMHPKPEEEEHPLLGERSPRASLAGGGLPLVSMSDGETESATGGQDVPTTTNLIQLDDDEAQDDDIIFEDFARLRLKGAETEA
